Assay results from US20240000899A1, “THERAPEUTIC USEFUL AGAINST ANTIMICROBIAL RESISTANT AGENTS” (priority 2022, published 2024).
“Also recorded” adds a separate entry of the source.

System: Staphylococcus aureus ATCC 6538
Experiment: Modified ASTM E2315 test of low pH therapeutic with AMPs, acid neutralized after one minute
Assay type: cell-based
Description: Since the reaction speed of the two different MOAs are different, a modified test protocol was developed, which is summarized below. • a. […] Heretofore, it has been believed that AMPs are unstable in low pH environments. Mixture of dry powder immediately prior to use is believed to address concerns regarding minimization of in vitro stability. • b. The prepared AMP solution was then mixed with the bacteria containing media. After one minute the acid solution was neutralized. This simulates the short antimicrobial period for the elevated proton concentration in vivo. The bacteria population was measured to determine efficacy after one minute. • c. The AMPs retained in the solution are not expected to stop their antimicrobial activity after acid neutralization, so a second bacteria population measurement was made after 24 hours. [table]

B1: lactoferrin (protein, UniProt P02788 20-710, looked up)
Lactotransferrin: GRRRSVQWCAVSQPEATKCFQWQRNMRKVRGPPVSCIKRDSPIQCIQAIAENRADAVTLDGGFIYEAGLAPYKLRPVAAEVYGTERQPRTHYYAVAVVKKGGSFQLNELQGLKSCHTGLRRTAGWNVPIGTLRPFLNWTGPPEPIEAAVARFFSASCVPGADKGQFPNLCRLCAGTGENKCAFSSQEPYFSYSGAFKCLRDGAGDVAFIRESTVFEDLSDEAERDEYELLCPDNTRKPVDKFKDCHLARVPSHAVVARSVNGKEDAIWNLLRQAQEKFGKDKSPKFQLFGSPSGQKDLLFKDSAIGFSRVPPRIDSGLYLGSGYFTAIQNLRKSEEEVAARRARVVWCAVGEQELRKCNQWSGLSEGSVTCSSASTTEDCIALVLKGEADAMSLDGGYVYTAGKCGLVPVLAENYKSQQSSDPDPNCVDRPVEGYLAVAVVRRSDTSLTWNSVKGKKSCHTAVDRTAGWNIPMGLLFNQTGSCKFDEYFSQSCAPGSDPRSNLCALCIGDEQGENKCVPNSNERYYGYTGAFRCLAENAGDVAFVKDVTVLQNTDGNNNEAWAKDLKLADFALLCLDGKRKPVTEARSCHLAMAPNHAVVSRMDKVERLKQVLLHQQAKFGRNGSDCPDKFCLFQSETKNLLFNDNTECLARLHGKTTYEKYLGPQYVAGITNLKKCSTSPLLEACEFLRK
1-min Efficacy (log) (bacteria population after one minute, then acid neutralized, no soiling, single-replicant): 0.05 log | Efficacy on S. aureus, conclusion in words (comparison of Table 3 examples): minimal efficacy; also recorded: not effective | 24-hour Efficacy (log) (second bacteria population measurement after 24 hours, acid neutralized after one minute): 0.16 log
